The results in this text go back to publication PMC5570898.

In this assay the target is CHL1 on ventral midbrain dopaminergic neurons (mouse (endogenous in ventral midbrain primary neurons)) (UniProt P70232).

In turn, “CHL1 recombinant protein (from UniProt P70232 26-1083) (natural protein)” gave an increase of TH+ neurite branching in E12.5 VM primary cultures on bound CHL1, against the Fc control of 2.4 fold; an increase of TH+ neurite branching in E12.5 VM primary cultures with soluble CHL1, against the PDL control of 5 fold; an increase of TH+ neurite length in E12.5 VM primary cultures on bound CHL1, against the Fc control of 1.8 fold; an increase of TH+ neurite length in E12.5 VM primary cultures with soluble CHL1, against the PDL control of 2 fold.
